Results published in the DeepSol protein solubility set.

Assay: soluble on expression in E. coli; label from the status in PepcDB or PDB records

Row | Sequence | soluble on expression in E. coli
1 | MGSDKIHHHHHHMIILTRKDLDELLKAEIAVSSVKEAFKLHYQKKVDQPQRLVMSVKGNWWGLMPSSTDYSFVTKIVNVIPENKERGLPLVQGVVILMSPDTGEILAIIDGTTLTAIRTAAASILSTELAINGRNIGILGIIGAGTEAYYHAKLALEYFKVQKLYISARKSHFELAKRVGGEATDLETLLKNSDTIFATTSSNFPVVLGKYLKDVFHLSSIGAHTPDSRELDDDTIIKVKSYIVDSLEAVSKESGDYIIPKQRGLLENKMIKELGEIIEKGIKIERPSLFKTVGIAVEDNITAHIAYQEALRRGIGFNVSI | not soluble
2 | LVGSRREIAARNLELCFPEKSPAERERLLKENFASSGIAFFEMAMSWWWPKARLARLAHIEGLEHLREAQAQGEGVILMALHFTTLEIGAALLGQVHTIDGMYREHDNPVFDYVQRRGRERHNLDATAIEREDVRSMLKVLRGGRAIWYAPDQDYGAKQSLFVPLFGIPAATVTATTKFARLGRARVLPFTQSRLADGSGYRLTIHPPLEDFPGESEEADCLRINQWVERCVRQQPEQYLWAHRRFKTRPPGEAK | not soluble
3 | MPKSDTKQKKRRSNKNRLRIKRARLFGPKDIDQVKEDIESQKKIEYDPELPGGGHFYCCECDRHFITEKVLMEHKRSNPHRRRAKEVREVAHSQRDAEWAVGLT | not soluble
4 | MSLGSIPNDIKVPLVYIEIDNSNALSGTPALAQKVLVIGQQLGTGTASPLTLNRITNSESQMDALFGKGSMLARSLKMFRKSNDYTDVYALGVADLSAGSAAKGEITIAATTAKAGVIALLIAGESVQVGVDEAATAATIATAMIAKINANTNLPVTAALKAATTETVELTAKWKGQTTNDIDIRYNYYDGEQLPQGVTLTVVEMTGGAGTPDMDAVIAAIPNEWYNHIVMPYNDTQSMNKLRDELVNRWGPLKMIEGIAYTAFRGTFAESGAFGVARNDYLFTCMGTNKAPHSPWEWAAAYAGQASYSLGIDPARPLQTLVMTSLLPPAKEIQWDPTERNLLLGDGIATYMVTPSGEVAIEREVSMYRENSYGDPDPSYLDITTPATLGYLRYSLRVMVTNRFPRHKLAGDDVLARLDPGQPVVTPKIMRNAMLELANNDWVPKGLMEDFDGFKETLEVYRDSSDQNRLNCVFKPDIVNQFRIFAALMQFKL | not soluble
5 | MERAEILGVGTELLYGETLDTNTAEIARSLKPYALKVERTLRVADEVAPLAREVEEAFARARLVVLSGGLGPTPDDVTREAVALALGEPLELDEAVLGEIEAFFRARGRAMPEANRKQAMRIPSATWLKNPRGTAPGWWVRKGGKDLVLLPGPPPEWRPMWQEVLPRLGLPRRPYAERVLKTWGIGESEIVERLGPLFVRGEEVEVGTYPKVHGVEVVVRGREDRVAELAERIKKKLLKEVWGEGEMTLAEAVKRRMEREGATLSTMESLTGGLLGAEITRVPGASRFYLGGVVSYSVGAKARFGVPQDLLSRTVSAETARAMAEAARSLFGSTYALATTGVAGPDPLEGEPPGTVYVALAGPTGAEVRRYRFPGDRETVRLRSVYAALALLVT | soluble
6 | MESGREVWPRDPKKAKQAIKQAEFKCEIDDTHETFVSEASRKNYMEAHHLIPLRMQHDFENSLDVVGNIVSICPNCHRLIHYGRDKDKKKVLELLFELEHHHHHH | soluble
7 | MNPLLTDSRRQALRSASHWYAVLSGERVSPQQEARWQQWYEQDQDNQWAWQQVENLRNQLGGVPGDVASRALHDTRLTRRHVMKGLLLLLGAGGGWQLWQSETGEGLRADYRTAKGTVSRQQLEDGSLLTLNTQSAADVRFDAHQRTVRLWYGEIAITTAKDALQRPFRVLTRQGQLTALGTEFTVRQQDNFTQLDVQQHAVEVLLASAPAQKRIVNAGESLQFSASEFGAVKPLDDESTSWTKDILSFSDKPLGEVIATLTRYRNGVLRCDPAVAGLRLSGTFPLKNTDAILNVIAQTLPVKIQSITRYWINISPL | soluble
8 | MSSSSSSEDELEKKVTKEQKKKETKSKKRQSEAVEEEKQEVKKAKNEEEVSGRLKDSDGNEMFEIGNLRYATVSKFKGKEYVNIREYYIDRDSQKMMPSRKGISLSKAQWANLKDLIPEIDKKF | soluble
9 | MGSDKIHHHHHHAQVNDTIQRTTGNDLYQGITRKLPYWQMVTPHGVQVTFAKTVHIIFPSAVRYVDLGSNWIIAGKADGAENVIRVKAATEGFPGETNFSVICEDGSFYSFNARYAHEPEMLNIEMKDFLENGDTTDFSHTRMNIHFRELAGESPLLVKLIMQSIYKEDRREIRHLGCKRFGVQFLLKSVHSHNGLFYFHTETRNRSNVAFRTDFIRFKIVDKKVPKRTAIQERVIDPVRSYNEVLVTEGKSDVRTVYAVPQFTIPDDKLLVIELFEKDGGRHQTIRVENADLVAARQINELKIK | not soluble
10 | MAKVYYEKDVTVNVLKEKKVAIIGYGSQGHAHAQNLRDNGFDVVVGLRKGKSWDKAKEDGFSVYTVAEAAKQADVVMILLPDELQPEVYEEEIAPNLQAGNSLVFAHGFNVHFDQVKPPVNVDVFLVAPKGPGHLVRRTFSEGGAVPALFAVYQDATGVATEKALSYADGIGATRAGVLETTFKEETETDLFGEQAVLCGGVTALVKAGFETLVDAGYQPELAYFECLHELKLIVDLMYEGGLENMRYSVSDTAQWGDFVSGPRVVTEDTKKAMGTVLAEIQDGTFARGWIAEHKAGKPNFYATNEKENEHEIEVVGRKLRGMMPFVQPRVKAGVK | not soluble
11 | MAHHHHHHMEDAFAGSCVQSLFEPKADLSLCVNKSIKLFLKEVPIPPADSVDRADEQNSTDAKKEQRESALSENLSLLNGYAYFNRIKSNINLLHTELHGIKRDFLFQKKQTKKNIQKLKIVRKQNKIYQSVLQEIKKDRRRKETYELLCTEIQKLEEVNYLNKKQQMEKRDIEDLQQKMKDIENAIRINDENIQRTIQQISDIVSTNLQP | not soluble
12 | MISDRPGLPGEDMRLALLSFENYLLANRNTEKPVLHIALSPAPEDKLTDEQLAELAQNYMQKMGYGDQPYIAYKHGDTHNTHIHIVSVCVDEEGRKINDSFEHRRSMTACRELEIDFGLRNGADMEERNQKAEMKKVDATQGDVRHQIGNTLKAVLESYRFQTFGEYSALLSTLNIEAKQVRGEFKGEPYTGIIYSATDDSGKVVSPPFKSSRFGKRFGNERLEKRMLSHTRDFKDGKWAPTIHAQVVYAMRHARSREELAGLLKKARIDAVFRENEQGRIYGVTFIDHNRREVFNGSRMGKEFSANIYNELFKWWDGIPATERSAHTGTELWQHHSHKAESGSPLEQAASIFSMETNPVDYGEEALARRMKKRRKAKRKSRGI | not soluble
13 | MGSDKIHHHHHHGNSKSRNDRTETVDKEVIKAPEFDADSAYQYIQVQADFGPRVPNTQAHKECGEYLAGQLEKFGAKVYNQYADLIAYDGTILKSRNIIGAYKPESKKRILLCAHWDSRPYADNDPDPKNHHTPILGVNDGASGVGVLLEIARQIQKEQPALGIDIVFFDSEDYGIPEFYDGKYKQDTWCLGSQYWARTPHVQNYNARYGILLDMVGGKDATFYYEGYSARTARSEMKKIWKKAHELGYGKYFVKEDGGETVDDHIYVNKLARIPCVDIINYDAGNPQSSFGSFWHTVNDTMENIDRNTLKAVGQTVMDVIYNEK | not soluble
14 | MGIHFVDKADLWKSALLFNLKLRDRFRIAVDDHRGRATDLTAEEESALFRMLQTVAVPLIGNACHVFMNGFNRVQVYGLEKLHDALLNRPKNKPLVTVSNHVASVDDPFVIASLLPPKFLLDARNLRWTLCATDRCFKNPVTSAFSRSVKVLPISRGEGIYQQGMDIAISKLNNGGWVHIFPEGSRSRDGGKTMGSAKRGIGRLILDADTLPMVVPFVHTGMQDIMPVGASVPRIGKTVTVIIGDPIHFNDILSTEGAQHVSRKHLYDAVSSRIGQRLYDLKAQVDRVYIEQQSMMSHNAKTPSDRAAEIFHRVDWDSFGMGAQFSEESSPSSKPIGQSDDRIVRSPKRRVSPEGGVSLKIKKLMDSTEMMGFAARGLLMNEYKSRVESANVGRPLKAWREYFMNRGL | soluble
15 | MLSMLSKISFTRPQAQELLRRLQAPRHLLQVVLGPRQVGKTTLALQVAQTCGLPYHYASADEPTLKEAPWLETQWTLARRLAQAGEALLVLDEAQKVLGWSETLKRLWDEDTLRGLPLKVVLLGSSPLLLQKGLSESLAGRFEVLHLPHWSFYEMERAFGYTLPEYLYFGGYPGAAPLREEPERFARYIKDALLETTLGRDILLHTRVEKPALLRRVLELGLLYSGQVLSYTKMLGQLQDAGNTVTLAYYLELLEGAGLLGALQKYAAEPIRRRASSPKLLALNTGLITAVLGLSPEEVWEDAALMGRLVETAVGAHLLAHAHQGGFEVYYWRERDQEVDFVLQKGKRLLALEVKSAPSKRTQGLEAFTRTFGAKGLLVGPEGVPLEAFLRDNPLNFL | soluble
16 | MSLARCERLRGAALRDVLGRAQGVLFDCDGVLWNGERAVPGAPELLERLARAGKAALFVSNNSRRARPELALRFARLGFGGLRAEQLFSSALCAARLLRQRLPGPPDAPGAVFVLGGEGLRAELRAAGLRLAGDPSAGDGAAPRVRAVLVGYDEHFSFAKLREACAHLRDPECLLVATDRDPWHPLSDGSRTPGTGSLAAAVETASGRQALVVGKPSPYMFECITENFSIDPARTLMVGDRLETDILFGHRCGMTTVLTLTGVSRLEEAQAYLAAGQHDLVPHYYVESIADLTEGLEDEGHHHHHH | soluble
17 | SFRMLSSSFEDDPFFADSFLAHRESMRNMMRSFSEPLGRDLLSISDGRGRTHNRRERDDGEDSLTATSFSLVPFGRFGGMHADVNPFQTMDRMMANMRSGIQELQRNFGQLSMDPNGHSFCSSSVMTYSKVGDEPPKVFQASTQTRRAPGGVKETRKAMRDSDSGLERMAVGHHIHDRGHVIRKSKNNKTGDEEVNQEFINMNESDAHAFDDEWQNEVLKYKSIGRSGNTGMRSVGHEHPGSRELKRREKIHRNSAIESGRRSNVFVDKLNVKGSPVKITKK | soluble
18 | MTKVDFWPTLKDAYEPLYPQQLEILRQQVVSEGGPTATIQSRFNYAWGLIKSTDVNDERLGVKILTDIYKEAESRRRECLYYLTIGCYKLGEYSMAKRYVDTLFEHERNNKQVGALKSMVEDKIQKETL | soluble
19 | METFQKIKELVVVPERQSVILSVKQDLVNPLQDIAQQMAQYVTREYPLTLIDGVKLTPALEEQAFATYQTVQNLLTLKASVEDIAEALDVLEGGLTMQKVSNAEARAKAYITALNGISLWALLQAVKNLVRGEAKGMSTTFVPSCADLAQYCRDLENRLSGTAEKVFIAVENSRNLALGGKRISFMRIGKPCEELHGNLSSKAA | not soluble
20 | SLPRDENMPLIQVIDDDVSMLILLKDALESKGWMVMANTEPEKAVDQFFDMNPDCLIIDVNLPGKSGFHVLEDIQKHTNKKFIPKLMISIMNDRETRIKAYRLGADDFISKPIDLEEFLIKVERHLDRKQIFDQSVLIDELTQVYNRRFLKDSLKRYLKELERSNQYFSIAVLDLDHFKQVNDMYGHPAGDRILSEFAQYLKDHVRIGDIVFRYGGEEFILLLPRTNDHDSKEVVSRLLSGFSSRTFIEGGAELKMTFSAGVYMVHDPSATVAEAIKTADQALYKAKRNGRARVESANKLIGGHSRKVLNVSVIDDDAIIRTMLMKILQSMEFEHTSLDIQVYEDGQKFLQSGRMEQKGEHFLILDGIMPVMDGTEVLQKVKENRNASRVHVLMLTGRKTEYDIARALKLGADDYVTKPFSITELQARIHRLIQRMSEG | soluble
21 | DRCRYTLCCDGALKAVSACLHESESCLVPGDCCRGKSRLTLCSYGEGGNGFQCPTGYRQC | soluble
